Results from patent US6528098B2, “Preparation of a therapeutic composition” (Advanced Viral Research Corp., priority 1996, dated 2003).
“Also recorded” adds a separate entry of the source. No end group written: not given here.

Columns and labels:
trypsin = biological target: T1, trypsin (Bos taurus, UniProt P00760); assay: Treatment of Product R with trypsin, SDS-PAGE on a 16% gel; assay type: physicochemical; parameters: key: “−” represents no substantial alteration of the stainable bands; “+” represents substantial alteration of the stainable bands; details: 250 μg/ml trypsin, 25° C., 19 hours
T1 construct: purchased Boehringer Mannheim USA
T1 sequence (P00760 24-246): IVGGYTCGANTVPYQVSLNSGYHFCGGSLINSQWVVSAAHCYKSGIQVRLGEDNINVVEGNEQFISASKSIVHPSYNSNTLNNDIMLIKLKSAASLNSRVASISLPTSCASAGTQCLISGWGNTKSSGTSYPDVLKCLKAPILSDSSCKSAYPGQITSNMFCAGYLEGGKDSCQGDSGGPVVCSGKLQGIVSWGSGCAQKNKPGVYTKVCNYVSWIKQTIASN
Method: (§1) The biochemical properties of the peptides: Some biochemical properties of the silverstainable peptide components of Product R are analyzed using various catabolic enzymes, as described below:
The treatment with trypsin (Boehringer Mannheim USA): Trypsin is a serine protease, which specifically cleaves peptide bonds of lysine and arginine at the C-terminal at pH 7.5-9.0. A Product R sample is incubated in a reaction buffer having 100 mM Tris-HCl, pH 8.0, 0.1% SDS and 250 μg/ml of sequencing grade trypsin at 25° C. for 19 hours and then subject to SDS-PAGE on a 16% gel. While serum proteins will be broken down to peptides smaller than 4.3 KDa under such reaction conditions, none of the silver stained components of Product R are affected by trypsin.
(§2) A summary of the above described treatments by catabolic enzymes is provided in the following TABLE III, and the results of the treatment are shown in FIG. 5, wherein “−” represents no substantial alteration of the stainable bands and “+” represents substantial alteration of the stainable bands.

[1] = biological target: T2, recombinant N-glycosidase F (Elizabethkingia miricola, UniProt P21163); assay: Treatment of Product R with N-glycosidase F, SDS-PAGE on a 16% gel; assay type: physicochemical; parameters: key: “−” represents no substantial alteration of the stainable bands; “+” represents substantial alteration of the stainable bands; details: 37° C., 4 hours
T2 construct: purchased Boehringer Mannheim, USA
T2 sequence (P21163 41-354): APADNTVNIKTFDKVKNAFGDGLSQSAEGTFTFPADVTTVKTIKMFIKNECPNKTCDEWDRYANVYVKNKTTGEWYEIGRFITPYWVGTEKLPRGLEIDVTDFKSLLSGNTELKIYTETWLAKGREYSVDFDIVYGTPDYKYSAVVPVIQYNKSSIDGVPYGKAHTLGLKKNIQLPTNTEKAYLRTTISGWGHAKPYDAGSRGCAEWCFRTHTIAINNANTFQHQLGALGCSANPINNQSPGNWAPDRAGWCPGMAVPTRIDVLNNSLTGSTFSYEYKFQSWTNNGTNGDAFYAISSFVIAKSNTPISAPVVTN
Method: as §1
The treatment with N-glycosidase F (Boehringer Mannheim, USA): N-glycosidase F cleaves all types of asparagine bound N-glycans provided that the amino group and the carboxyl group are present in a peptide linkage and the oligosaccharide has the minimum length of the chitobiose core unit. A Product R sample is incubated in a reaction buffer containing 0.4X Dulbecco's PBS (where 1X PBS contains 1.47 mM KH2 PO4, 2.67 mM KCl, 138 mM NaCl and 8.1 mM Na2 PO4 7H2O), 0.1% SDS, 0.5% NP40 and 50 units/mil of recombinant N-glycosidase F at 37° C. for 4 hours and subject to SDS-PAGE on a 16% gel. […] The resistance to N-glycosidase F indicates the lack of asparagine bound N-glycan, which is commonly observed in glycoproteins.
as §2

[2] = tested on: MCP-1 secretion by U937 cells; assay: MCP-1 secretion by cultured U937 cells, ELISA; assay type: cell-based, human; details: for production of monocyte chemotactic protein 1 (MCP-1) in U937 cells: general statement; for up-regulation of MCP-1 secretion compared with Product R: peptide solutions 2 mg/ml, equimolar mixture 4 mg/ml, final concentration 10% in culture media, FIG. 20
Method: Ammonium sulfate precipitation of Product U peptides: Product U samples are lyophilized and re-dissolved in 20% of original sample volume in water (5X concentrated). Ammonium sulfate crystals are added to the solution to reach 60% ammonium sulfate saturation (390 mg/ml solution). Gentle mixing solubilizes crystals. Protein precipitates appear after 30 mm to 1 hr incubation on ice and is centrifuged at 16,000×g for 30 min. at […]. The pellet is dissolved in 5% of original sample volume in water. The solution is desalted by gel filtration chromatography through a column of BioGel P-2. The column is eluted with 0.1X phosphate buffered saline (PBS). Only protein containing fractions are pooled and lyophilized.
Separation and isolation of two major neptide of Product R by gel ruhranon chromatography: A BioGel P-10 column (1.6 cm×52 cm) was equilibrated with 0.1X concentration of PBS. Two ml of 2X concentrated Product R was applied to the column, which was eluted with the same buffer at a flow rate of 25 mI/hr. Four mm. fractions were collected. All protein-containing fractions are analyzed by Sodium dodecyl sulfate polyacrilamide gel electrophoresis (SDS-PAGE). Fraction, containing primarily peptide A and peptide B are pooled separately and lyophilized. Peptide A pool contains very little contamination of the other peptide, however, the peptide B pool is highly enriched but still contains peptide A as a major contaminant. A reasonable estimate of peptide purity in the pools is >90% for peptide A and >75% for peptide B.
U937 cell culture: The U937 human hystiocytic lymphoma cell line was purchased from the American Type Culture Collection. […]
Product R or isolated peptide treatment: Cells (1.0×10^5/ml) are cultured in growth medium containing Product R, isolated purified peptide solution, mixed peptides solution or Dulbecco's PBS for 2 days. Following centrifugation, the culture supernatants are analyzed using chemokine ELISA kits. […]
Measurement of secreted IL-8 and MCP-1: The concentrations of IL-8 and MCP-1 in the culture supernatants are assayed by ELISA, using human IL-S ELISA kits (Endogen. Inc.) and Quantikine human MCP-1 ELISA kits (R&D Systems, Inc.), respectively, according to manufacturer's instructions (with slight modifications for the MCP-1 ELISA). […] Absorbances are measured on a PowerWave 200 Microplate Scanning Spectrophotometer. Dilutions of the standard protein supplied by each manufacturer are utilized to generate a four-parameter logistic fit standard curve, and the concentration of chemokine in each supernatant is determined by extrapolation.

Sequence | Sensitivity of the Peptide Components of Product R (SDS-PAGE): Trypsin (250 μg/ml) (trypsin) | Sensitivity of the Peptide Components of Product R (SDS-PAGE): N-glycosidase F (50 units/ml) [1] | production of monocyte chemotactic protein 1 (MCP-1) in U937 cells [2] | up-regulation of MCP-1 secretion compared with Product R ([2]; listed as peptide-B) | up-regulation of MCP-1 secretion compared with Product R [2]
GEIPDAGGRIVDYYVGFSDSV (not fully specified (residue 18)) [Peptide-B, 21-amino acid peptide linked at serine 18 through a diphosphodiester group to the 3′-end of an adenylyl (3′-5′) adenosine moiety] | − | − | capable of inducing the production; also recorded: contributes more to the activity than peptide-A | failed to elicit a response same as that of Product R; also recorded: slightly more active than peptide A; also recorded: induces higher levels of secretion of IL-8 or MCP-1 than peptide-A | 
KVLPVPQKAVPYPQRDMPIQAFLLYQEPVLG [Peptide-A, 31-amino-acid long peptide derived from bovine beta-casein, constituent of Product R] | − | − | capable of inducing the production |  | failed to elicit a response same as that of Product R
